In the nanobody polyreactivity screen of Harvey et al. (2022):

Test: yeast display, Sf9 membrane polyspecificity reagent, FACS + sequencing; frameworks hold sequencing errors
Summary of the method: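 Galactose-induced (36–48 hours) yeast carrying a synthetic nanobody display library were exposed to 10% biotinylated, detergent-solubilized Sf9 membrane reagent at 4 °C for 1 hour. FACS followed streptavidin microbead enrichment, using low and high (top ~1%) gates for expression (anti-HA) and reagent binding (streptavidin). Colony PCR, MiSeq 2 × 250 sequencing and CDR-length filtering followed. Labels for polyreactivity reflect the gate of origin.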

Sequence | polyreactivity (PSR sort gate)
QVQLVESGGGLVQAGGSLRLSCAATGRTFQDNAMGWYRQAPGKERELVAAISWRGGSTNYADSVKGRFTISRDNAKNTVYLQMNSLKPEDTAVYYCNRDPRKYGKLDYWGQGTQVTVSS | low polyreactivity
QVQLVESGGGLVQAGGSLRLSCAATGRTFQFNAMGRYRQAPGKERELVAAITSNGGSTNYADSVKGRFTISRDNAKNTVYVQMNSLKPEDTAVYYSAAPRFRYYYWDMDYWGQGTQVTVSS | low polyreactivity
QVQLVESGGGLVQAGGSLRLSCAATGSIFDLNSMGWYRQAPGKEREVVAAISSGGGTYYADSVKGRFTISRDNANNTVFLQMNSLKPEDTAVYYCIRVTYRSRGRDYWGQGNQVTVSS | high polyreactivity
QVQLVESGGGLVQAGGSLRLSCAATGSIFLYYAMGWYRQAPGKERELVAGINRVGSTNYADSVKGRFTISRDNAKNTVYLELNSLKPEDTAVYYCAAKYRNRYDYWGQGTQATVSS | low polyreactivity
QVQLVESGGGLVQAGGSLRLSCAATGSIFQSYAMGRYRQAPGKERELVAGISSGGSTNYADSVKGRFTISRDNAMNTDYLQMNSLKPEDTAVYYCATGGFAGASFAYEYYYWGQGTQVTVSS | low polyreactivity
QVQLVESGGGLVQAGGSLRLSCAATGSIFRWNTMGWYRPAPGKERELVAVITWSGDSTYYADSVKGRFTISRDNAKNTVYLQMNSLKPEDTAVYYCAVDVVTSYYELTGSFNYWGQGTQVTVSS | low polyreactivity
QVQLVESGGGLVQAGGSLRLSCAATGSIFRYNTMGWYRQAPGKERELVATITRRGGSTYYADSVKGRITISRDNAKNTVYLQMNSLKPVDTAVYYCNDDNFGGPYNYWGQGTQVTVSS | low polyreactivity
QVQLVESGGGLVQAGGSLRLSCAATGSIFYNYAMGWYRQAPGKERELVAAINRSGGITFYADSVKGRFTISRDNAKNTVYLQMNSLKPEDTAVYYCAAEEVPYDRDMDYWGQGTQVTVSS | low polyreactivity
QVQLVESGGGLVQAGGSLRLSCAATGSILNYYAMGWYRQAPGKERELVATISSGGNTHYADSVKGRFTISRDNAKNTVYLQMNSLKPEDTAVYYSAAVASKHWGRDYWGQGTQVTVSS | low polyreactivity
QVQLVESGGGLVQAGGSLRLSCAATGSPFILYALGWYRQAPGKERALVAAITTSGGSTYYADSVKGRFTISRDNAKNTVYLQMNSLKPEDTAVYYCNADWGWRYSSDFDYWGQGTQVTVSS | low polyreactivity
QVQLVESGGGLVQAGGSLRLSCAATGSTVDFYAMGWNRQAPRKERELVAAISWSAGSTYYADSVKGRFTISRDNAKNTVYLQMNSLKPEDTAVYYCNADYWGQGTQVTVSS | low polyreactivity
QVQLVESGGGLVQAGGSLRLSCAATVSTFWNYAMGWYRQAPGKERELVAAITRGSSTNYADSVKGRFRISRDNAKNTVYLQMNSLKPEVTAVYYCAKRVGRWSAFYYWGQGTQVTVSS | high polyreactivity
QVQLVESGGGLVQAGGSLRLSCAAYGFFYNAMGWYRPAPGKERELVAAISWSGASTYYADSVKGRFTISRDNAKNTVYLQMNSLKPEDTAVFYCNADPRLRQTRDYWGQGTQVSVSS | high polyreactivity
QVQLVESGGGLVQAGGSLRLSCAAYGFIFGGNAMGWYRQAPGKERELVAAITARSGSTYYADSVKGRFTISRDNAKNTVYLQMNSLKPEDTAVYYCATPVYRSTYEYDYWGQGTQVTVSS | low polyreactivity
QVQLVESGGGLVQAGGSLRLSCAAYGFIFSYYAMGWFRQAPGKEREFVATITWRGGSTYYADSVKGRFTISRDNAKNTVYLQMNSLKPEDTAVYYCAARKRTPGYGYWGQGTQVTVSS | high polyreactivity
QVQLVESGGGLVQAGGSLRLSCAAYGFIFSYYTMGWYRQAPGKERELVAAISYSGGSTYYADSVKGRFTISRDNAKNNVYLQMNSLKPEDTAVYYCTAVAAATYDYWGQGTQVTVSS | high polyreactivity
QVQLVESGGGLVQAGGSLRLSCAAYGFIIARNAMGWYRQAPGKERELVAAISAAGGRTYYADSVKGRFTISRDNAKITVYFQMNSLKPEDTAVYYCAARRDGRCGSYNYWGQGTQVTVSS | high polyreactivity
QVQLVESGGGLVQAGGSLRLSCAAYGITFPSYVMGWYRQAPGKERELVAAISWRGGSTYYADSVKGRFTISRDNAKNTVYLQMNSLKPEDTAVYYCAAEYLVWYTFYPKYDYWGQGTQVTVSS | high polyreactivity
QVQLVESGGGLVQAGGSLRLSCAAYGITFYLYAMGWYIQAPGKERELVAAITSSGGSTYYADSVKGRFTISRDNAKNTVYFQMNSLKPEDTAVYYCNALYFSQDRYDYWGQGTQVTVSS | high polyreactivity
QVQLVESGGGLVQAGGSLRLSCAAYGLTFYGYGMGWYRQAPGKERELVASITSGGNTYYADSVKGRFTISRDNAKNTVYLQMNSLKPEDTAVYYCAVTAIALYYSSGYYWGQGTQVTVSS | low polyreactivity
QVQLVESGGGLVQAGGSLRLSCAAYGNTFYPYTMGWYRQAPGKERELVADITYIGGDTYYADSVKGRFTISRDNAKNTVYLQMNSLKPEDTAVYYCNKDGGYFETYHTYTLDDYWGQGTQVTVSS | low polyreactivity
QVQLVESGGGLVQAGGSLRLSCAAYGRIFKYYVMGWYRPAPGKERELVATISSGSGTNYADSVKGRFTISRDNAKNTVYLQMNSLKPEDTAVYYCAARWTPRVRGYNYWGQGTLVTVSS | high polyreactivity
QVQLVESGGGLVQAGGSLRLSCAAYGRIFSTYAMGWYRQAPGKERELVAAINSIGGRTYYADSVKGRFTISRDNAKNTVYLQMNSLKPEDTAVYYCAAGYRTRRGLGYYYWGQGTQVTVSS | high polyreactivity
QVQLVESGGGLVQAGGSLRLSCAAYGRISYYYAMGWYRQAPGKERELVAAITYSTGSTYYADSVKGRFTISRDNAKNTVYLQMNSLKPEDSAVYYCAARYWRWLFPFDYWGQGTKVTVSS | high polyreactivity
QVQLVESGGGLVQAGGSLRLSCAAYGRTFASYALGWYRQAPGKEREFVAVISVNGGNTYYADSVKGRFTISRDNAKNTVYLQMNSLKPEDTAVYYCARFDGWYQGYYPLYEFDYWGQGTQVTVSS | high polyreactivity
QVQLVESGGGLVQAGGSLRLSCAAYGRTFDTYAMGWYLQAPGKERELVAAISFSGASTYYADSVKGRFTISRDNAKNTVYLQLNSLKPEDTAVYYCNARYGYRVPLTPIGARFNYWGQGTQETVSS | high polyreactivity
QVQLVESGGGLVQAGGSLRLSCAAYGRTFFWNAMGLYRKAPGTETELVAAITWSGGSTYYADSVKGRFTISRDNAKITVYLQMNSLKPEDTAVYYCASVVSDYVWRYEYWGQGTQVTVSS | low polyreactivity
QVQLVESGGGLVQAGGSLRLSCAAYGRTFNDYAMGWYRQAPGKERELVAAIDSDGDTNYADSVKGRFTISRDNAKNTVYLQMNSLKPEDTAVFYCNAVRLVVQEWYYYFTFDYWGQGTQVTVSS | low polyreactivity
QVQLVESGGGLVQAGGSLRLSCAAYGRTIRYYSMGRYRQAPAKERELVATISRRSGNTYYADSVKGRFTLSRDNAKNTVYLKMNSLKPEDTAVYYCAVRYFGLYNYDYWGQGTQVTVSS | high polyreactivity
QVQLVESGGGLVQAGGSLRLSCAAYGRTITYYAMGGYRQSPGKERELVAAIPWSGGSTYYADSVKGRFTISRDNAKNTVYLQMNSLKPEDTAVYYCSADSYIYSVNYWGQGTQLTVSS | low polyreactivity
